Reference: PMC8857470, “Molecular insights into the maturation of phosphodiesterase 6 by the specialized chaperone complex of HSP90 with AIPL1” (The Journal of Biological Chemistry, 2022)

Target: Avi-tagged HSP90β (full-length human HSP90β, residues 1–724) (human) (UniProt P08238)
Sequence (P08238 whole entry, the tested form may be a part): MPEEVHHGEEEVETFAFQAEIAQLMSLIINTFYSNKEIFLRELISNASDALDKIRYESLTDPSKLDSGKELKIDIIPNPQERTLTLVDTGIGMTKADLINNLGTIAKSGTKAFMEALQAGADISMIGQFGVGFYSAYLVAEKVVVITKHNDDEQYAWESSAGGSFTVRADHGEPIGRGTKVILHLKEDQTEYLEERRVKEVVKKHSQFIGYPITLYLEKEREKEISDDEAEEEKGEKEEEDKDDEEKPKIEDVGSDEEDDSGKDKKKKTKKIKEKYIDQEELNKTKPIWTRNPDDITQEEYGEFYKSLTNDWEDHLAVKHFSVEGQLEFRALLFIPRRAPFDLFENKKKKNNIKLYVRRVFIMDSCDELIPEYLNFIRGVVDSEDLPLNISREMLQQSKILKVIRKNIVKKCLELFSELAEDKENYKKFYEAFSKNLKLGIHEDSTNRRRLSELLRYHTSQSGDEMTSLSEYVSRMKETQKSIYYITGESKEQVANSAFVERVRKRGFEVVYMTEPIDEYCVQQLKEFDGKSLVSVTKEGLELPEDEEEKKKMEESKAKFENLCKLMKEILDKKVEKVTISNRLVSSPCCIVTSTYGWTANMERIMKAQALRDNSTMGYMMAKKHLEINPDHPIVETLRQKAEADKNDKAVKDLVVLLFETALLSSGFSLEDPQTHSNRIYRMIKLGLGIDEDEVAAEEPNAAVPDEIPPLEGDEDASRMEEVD

Row | cGMP hydrolysis (PDE6 activity) in lysates of HEK293T cells cotransfected with PDE6C, Pγ and the AIPL1 mutant (nmol•min^−1• mg^−1) | Binder
1 | 8.8 | AIPL1-K265A (natural protein) MDVSLLLNVEGVKKTILHGGTGELPSFITGSRVTFHFRTMKCDDERTVIDDSKQVGQPMSIIIGNMFKLEVWETLLTSMRLGEVAEFWCDTIHTGVYPMLSRSLRQVAEGKDPTSWHVHTCGLANMFAYHTLGYEDLDELQKEPQPLVFLIELLQVEAPNEYQRETWNLNNEERMQAVPLLHGEGNRLYKLGRYDQAATKYQEAIVCLRNLQTKEKPWEVEWLKLEKMINTLILNYCQCLLKKEEYYEVLEHTSDILRHHPGIVAAYYMRARAHAEVWNAEEAKADLEKVLELEPSMRKAVLRELRLLESRLADKQEEERQRCRSMLG
2 | 3 | AIPL1-K265W (natural protein) MDVSLLLNVEGVKKTILHGGTGELPSFITGSRVTFHFRTMKCDDERTVIDDSKQVGQPMSIIIGNMFKLEVWETLLTSMRLGEVAEFWCDTIHTGVYPMLSRSLRQVAEGKDPTSWHVHTCGLANMFAYHTLGYEDLDELQKEPQPLVFLIELLQVEAPNEYQRETWNLNNEERMQAVPLLHGEGNRLYKLGRYDQAATKYQEAIVCLRNLQTKEKPWEVEWLKLEKMINTLILNYCQCLLKKEEYYEVLEHTSDILRHHPGIVWAYYMRARAHAEVWNAEEAKADLEKVLELEPSMRKAVLRELRLLESRLADKQEEERQRCRSMLG
